Values of other authors as cited in publication PMC5403572.

Experiments:
Asp228 = Asp228 (UniProt position 289, DKSIVDSGTTN); experiment: kinetics; conditions: apo (free) enzyme
Asp32 = Asp32 (UniProt position 93, LNILVDTGSSN); experiment: kinetics; conditions: apo (free) enzyme

Substance: Beta-secretase 1 (BACE1, memapsin 2) (Homo sapiens)
- pKa (Asp228): 3.5
- pKa (Asp32): 5.2
